The target of the assay is WA-1 NTD probe (SARS-CoV-2 WA-1, UniProt P0DTC2, biotin on the AVI tag (…)). Nature of the assay: BLI. The note with it: both partners purified.

B1: 5–7 (antibody, V domains shown)
VH: QVQLVQSGAEVKKPGASVKVSCKASGYTFTSYYMHWVRQAPGQGLEWMGVINPSGGSTSYAEKFRGRVTMTRDTSTSTVYMELSSLRSEDTAVYYCARDREPHSDSSGYWDSLKYYYYYALDVWGQGTTVTVSS
VL: AIQLTQSPSSLSASVGDRVTITCRASQGISSYLAWYQQKPGKAPELLIYAASTLQSGVPSRFSGSGSGTDFTLTISSLQPEDFATYYCQQLNTYPFTFGPGTKVDIK
notes: also called antibody 5-7
As to B1, the binding result is “binds”.
